Test results from patent US20260234270A1, “METHODS FOR TREATING CONDITIONS USING ANTI-NMDA RECEPTOR ANTIBODIES” (Lankenau Institute for Medical Research, priority 2022, published 2026).
Entries after “also recorded” stand apart in the source; their conditions may differ.

Assays:
retinal cells = conditions: glaucoma, elevated homocysteine; cited from earlier work
tinnitus = conditions: intratympanic injection; cited from earlier work
[1] = system: monkey model of experimental glaucoma; conditions: cited from earlier work
[2] = system: streptozotocin-induced diabetic mouse model; conditions: cited from earlier work
NMDAR GluN1 epitopes = biological target: T1, NMDAR GluN1 epitopes (Mus musculus, UniProt P35438); test: Antibody binding in mouse retina, model of retinitis pigmentosa
T1 construct: from tissue; host or cells: mouse retina, model of retinitis pigmentosa
Source text: Left panels show DAPI staining, middle panels show antibody staining, right antibodies show merged imaging.

[3] = system: amino terminal domain of GluN1; test: Competitive binding assay, Whole Cell ELISA with HEK293T-ATD cells; conditions: for Binding of one biotinylated mAb in the presence of increasing concentrations of the other mAb (2G6 versus 5F5): HEK293T-ATD cells, competitor 50 to 0.2 μg/mL, biotinylated mAb 5 μg/mL; for Competition of 1D1 with mixed 2G6 and 5F5 mAbs for binding to NMDAR ATD: experiments similar to Example 2
Source text: We assessed the binding epitopes of the 2G6 and 5F5 mAbs. We tested whether they bind overlapping epitopes on GluN1, using a competitive binding assay with HEK293T-ATD cells, which express the amino terminal domain of GluN1. Sharma, R., Al-Saleem, F. H., Panzer, J., Lee, J., Puligedda, R. D., Felicori, L. F., Kattala, C. D., Rattelle, A. J., Ippolito, G., Cox, R. H., Lynch, D. R. and Dessain, S. K. (2018), Monoclonal antibodies from a patient with anti-NMDA receptor encephalitis. Ann Clin Transl Neurol, 5:935-951, which is incorporated herein by reference.
HEK293T-ATD cells (10^5 cells/well) were tested in a Whole Cell ELISA with luminescent detection method. We biotinylated the 5F5 and 2G6 or 5F5 using the EZ-Link™ Hydrazide-Biotin kit (Thermo Fisher), then generated dilution series of 2G6 or 5F5 (50 μg/mL to 0.2 μg/mL) and added to them the plate for 1 h at 37° C., followed by three washes with PBST. We then added the biotinylated 5F5 or 2G6 mAbs at 5 μg/mL, or PBS, and incubated for 1 h at 37° C. followed by three washes with PBST. The Pierce Streptavidin Poly-HRP substrate (Thermo Fisher) was added at 1:2000 dilution and incubated for 1 h at 37° C. This was followed by SuperSignal ELISA Femto Substrate, (1:1 ratio) (Thermo Fisher) and relative luminescence values were measured using the Synergy II plate reader. Duplicate binding curves were plotted and the linear portions were used for analysis using Excel.
We measured binding of one mAb, biotinylated, in the presence of increasing concentrations of the other.
Experiments similar to those done in Example 2 were used to test whether the 1D1 binds a site on the NMDAR ATD that overlaps 2G6 and 5F5. In these experiments, 1D1 binding was tested in competition with mixed 2G6 and 5F5 mAbs.

NMDAR GluN1 antigen = NMDAR GluN1 antigen (Mus musculus, UniProt P35438); test: Immunofluorescence staining of mouse retinas (normoxic; oxygen induced retinopathy model); format: binding; conditions: chimeric antibodies
[4] = system: oxygen induced retinopathy (OIR) in mice; test: Mouse oxygen induced retinopathy (OIR) model, hyperoxia induced hemorrhage; format: in vivo; conditions: hyperoxia P7 to P12; eye injected at P12; other eye PBS
Description: Neonatal mice were exposed to hyperoxia (75% oxygen) from postnatal day 7 (P7) to P12, and then returned to room air. Upon return to room temperature, at P12, the eye on the right was injected with 5F5 antibody against NMDAR, while the left eye in the figure was injected with PBS.
We next examined the potential effects of the NMDAR antibodies on pathological retinal neovascularization. We used the well characterized model of oxygen induced retinopathy (OIR) in mice. In this model, neonatal mice are exposed to hyperoxia (75% oxygen) from postnatal day 7 (P7) to P12, and then returned to room air. This approach, induces pathological neovascularization in the retina. In FIGS. 3A and 3B, a comparison is shown between two eyes of a mouse exposed to hyperoxia. Upon return to room temperature, at P12, the eye in FIG. 3B was injected with 5F5 antibody against NMDAR, while the eye in FIG. 3A was injected with PBS. […] This is a wholly unexpected finding.

[5] = hyperoxic conditions (75% oxygen P7 to P12, oxygen induced retinopathy model)

Molecule	Antibody binding in mouse retina (epitope expression) (NMDAR GluN1 epitopes)	Binding of one biotinylated mAb in the presence of increasing concentrations of the other mAb (2G6 versus 5F5) [3]	Competition of 1D1 with mixed 2G6 and 5F5 mAbs for binding to NMDAR ATD [3]	Antibody binding in mouse retina (NMDAR GluN1 antigen; [5])	Antibody binding in mouse retina (NMDAR GluN1 antigen; normoxic conditions)	further results
C[C@]12N[C@H](Cc3ccccc31)c1ccccc12 [MK-801]	–	–	–	–	–	Homocysteine toxicity to retinal cells via NMDAR (retinal cells): inhibited
CN[C@]1(c2ccccc2Cl)CCCCC1=O [Esketamine]	–	–	–	–	–	Activity in treatment of tinnitus (tinnitus): has shown activity in treatment of tinnitus
CC12CC3CC(C)(C1)CC(N)(C3)C2 [Memantine]	–	–	–	–	–	Retinal damage [1]: reduced retinal damage; Retinal toxicity [2]: reduce retinal toxicity
2G6: monoclonal human anti-NMDAR (GluN1) antibody; variable heavy chain SEQ ID NO: 9, light chain SEQ ID NO: 11 (antibody, listed as Mus musculus, listed as Homo sapiens, V domains shown) VH: QVQLQESGGGVVQPGRSLRLSCAASGFSFNAFAMHWVRQAPGKGLEWVARISHYGSDDYYADSVKGRFTISRDNSQNTLFLQMNSLKAEDTGVYYCWRGFTLVRGVISRNPINRFSGMDVWGQGTTVTVS VL: SYELMQPPSVSVSPGQTARITCSGDALPKKYAYWYQQKSGQAPILVIYEDNKRPSGIPERFSGSSSGTMATLTISGAQVEDEADYFCYSTDSSGNHGVFGGGTKLTVL	expressed in the mouse retina	Bind Different Sites on the NMDAR	not inhibited by 1D1	expressed in the mouse retina; also recorded: immunoreactive with the outer segment of the photoreceptors as well as the choriocapillaris layers of the mouse retina; also recorded: show binding in outer segments of mouse retina	None of the anti-NMDAR antibodies or the control antibody bound to mouse retina	–
1D1: monoclonal human anti-NMDAR (GluN1) antibody; variable heavy chain SEQ ID NO: 5, light chain SEQ ID NO: 7 (antibody, listed as Mus musculus, listed as Homo sapiens, V domains shown) VH: LVQLVESGGGVVQSGRSLRLSCAASGFAFHTFTIHWVRQAPGKGLDWVTAIYFDGTKKYYADSVKGRFTVSRDNSKNTVYLQMNGLRGEDTAVYYCARARYSYGLSFDYWGQGTPVTVSS VL: QSVVTQPPSVSAAPGQKVTISCSASSSYLGSNYVSWYQQLPGTAPKLLIYDNNKRSSGISDRFSGSKSGTSATLDITGLQTGDEADYYCGAWDSSLSVVVFGGGTKLTVL	–	–	not inhibited by 2G6 and 5F5 binding	expressed in the mouse retina; also recorded: immunoreactive with the outer segment of the photoreceptors as well as the choriocapillaris layers of the mouse retina; also recorded: show binding in outer segments of mouse retina	None of the anti-NMDAR antibodies or the control antibody bound to mouse retina	–
5F5: monoclonal human anti-NMDAR (GluN1) antibody; variable heavy chain SEQ ID NO: 1, light chain SEQ ID NO: 3; chimeric form in Examples 5-8 (antibody, listed as Mus musculus, listed as Homo sapiens, V domains shown) VH: QVQLVESGGGVVRPGGSLRLSCAASGFTFSTYSLHWVRQAPGKGLEWVGVILYDGSKKYYADSVRGRFTISRDNSKSTLNLDMSSLRPDDTAVYYCARDPIAVAPRPSGMVPQGFDYWGQGTLVTVSS VL: QSVVTQPPSASGTPGQRVTISCSGSSSNIGRNFVFWYRQLPGTAPKVLIYKNIQRPSGVPDRISGSRSGSSASLAISGLRSEDEADYYCASWDDSLSGVVFGGGTKLTVL	expressed in the mouse retina	Bind Different Sites on the NMDAR	not inhibited by 1D1	shows staining; also recorded: show binding in outer segments of mouse retina	None of the anti-NMDAR antibodies or the control antibody bound to mouse retina	Retinal bleeding / pathological neovascularization of the treated eye [4]: Prevents Hyperoxia Induced Hemorrhage; also recorded: the treated eye shows no bleeding; Antibody binding in mouse retina (NMDAR GluN1 antigen; hyperoxic conditions (75% oxygen P7 to P12, oxygen induced retinopathy model), listed as 5G5): immunoreactive with the outer segment of the photoreceptors as well as the choriocapillaris layers of the mouse retina
